The supplement of paper PMC9170038

tested on: K4 kissing-loop RNA reporter; assay: apparent KD of K4 kissing-loop reporter; higher = weaker reporter binding; details: Eterna round: R107; input ligand: theophylline 20 uM
Protocol: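 RNA-MaP round R107: designed RNA switches with theophylline, tryptophan, arginine or FMN aptamers are transcribed on-chip within common flanks. They are titrated with a labelled K4 kissing-loop RNA reporter in RNA-MaP buffer (100 mM Tris pH 7.5, 80 mM KCl, 4 mM MgCl2), without ligand or with the indicated ligand. Median apparent KD per design.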
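Further: bound reporter read as fluorescence of individual clusters on recovered sequencing chips by microscopy, with normalized cluster intensities fitted with a binding model.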

Row | Sequence | apparent KD of K4 kissing-loop reporter
1 | GGAUGCAUUUUGGAUACCAGUCUAGUGAUGUUAGACUGAUAAUAACGGGCAGCGUUGGCAGACCCUUGGCAGCCAAAAUACUUAA [theeternabot_exclusion_KL_Theo_B_33] | 63.9 nM
2 | GCGCGGCACAGUGAUGUUGUGCCUCGGAGACGAGGACCGGUACGGCCGCCACUCGUCCGCGCAGCUGAGGCAAAAGCCUCGGCAA [Omei KL Tryp A SS B v4] | 447 nM
3 | CCCGCGGCGGGAAACCGUCGCGGGAAGGAAGGAGCGGCGAAGAAGCCAGGUAGGUCGCCUAUUGACAGUGAUGUUGUUAUAUAGA [#11] | 292 nM
4 | AGAGUUAUGCGAGGAUAUGCAGUUAGUACUCAAAGAGUACUAACGGCAGAGUGAUGUUCUGUGAAAGCAGAAGGUGCAUAACUCA [Omei KL FMN B SS B v8] | 857 nM
5 | UAGUCCUAGUGAUCGUUAUCACGUGGUGGGCGAGGACCGGUACGGCCGCCACUCGACUAUGCAGUGAUGUUGCAAUCCGGACAAU [Exclusion - Tryptophan A (Freestyle 15)] | 325 nM
6 | ACGCCGAGGACGGCCGCCACUAUGACGAAGUCCGUUCCUAUUACUGCGCGAGUGAUGUUCACGACUAGGACCGGGUCUAUGAGCU [theeternabot_exclusion_KL_Trp_B_28] | 771 nM
7 | AUUAUCAAUUUAUUAUAUAACUUUUCAGAAGGAGCGUGGAAGUACACAGGUAGGUCGCUGAAUAUAGGACUAGUGAUGUUAGUUA [JR_Nu_SSArginiA_Sub024] | 298 nM
8 | UGAUAGGACAGAAGGAGCGGUAGUGAUGUUGCCAAAAGGAUAAGGUGUCAAAAGACACCCUGCCAGGUAGGUCGCUGUCCUAUCU | 110 nM

same assay, conditions: Eterna round: R107; input ligand: tryptophan 2.4 mM

Row | Sequence | apparent KD of K4 kissing-loop reporter
9 | AAAUAGAUCAGUCACCCAGUGAUGUUGGAAGGAGCGUGCGAAAGCACAGGUAGGUCGCCAGAAUAAAAGUGGCUGAUCAAAAUAA | 366 nM
10 | CAUACGCAUGGAGGAUAUGAGAAUUCUCAUGUCAUUUAAUAUUCUCAGUGAUGUUGAGGAUGUGGCUCAGAAGGCCAUGUGUAUG [Ex FMN B 21] | 379 nM
11 | GGCUAGACUUAGCUAGGUACAUAAUACGAUACCAGUCUAGAAAUAGACCCUUGGCAGCGUAGGCAGUGAUGUUGCCACUAGCUGA [Theo B SS t7] | 113 nM
12 | CGGCCGUUAUGAGAUACCAGAGUGGCGACCAGUGAUGUUGGUCGACGCUUGCGGUCGUCUCUCCCUUGGCAGCUUAGUACGAAAG [Inisar] | 91.3 nM
13 | ACGGCGCUGGAACCAGUAAUGGGAAGAAUGCGAGGACCGGUACGGCCGCCACUCGCUUCCAGUGAUGUUGGAAGUGAGCCAACAA [Geerzaedre] | 181 nM
14 | UAAGAAUAGCAUGCAGUGAUGUUGCAUGUCCGAGGACCGGUACGGCCGCCACUCGAGUCCUCGAACAUGCACCGAGGAAUAACAA [#19 K4 Tryptophan A Same State] | 124 nM
15 | CGGCGGAGUGAUGUUCCACCUACUGCGGAUACCAGCUUUGCCAGAGGCCCUUGGCAGCCGCACGGCUCAGUGAUGUUGGGUUGCG [Same State Theophylline A G12] | 195 nM
16 | ACGUCCGGGUUAAUCGUGGGCGUGGUGGAUACCAGUUCUUCAAUGAACCCUUGGCAGCCACGUGAGUGAUGUUCACGUGCGAUGA [#15 K4 Theophylline A Exclusion] | 88.6 nM
17 | GUAUCGCUAGGAGGAUAUUUCAAUUUGACUCUUUGAGUUAAUACGGAGUGAUGUUCCGUUUUACGGAAAGAAGGCCUAGUGAUAC [FMN B 14] | 166 nM
18 | AAUAUGAAGCAGUGAUGUUGCUUAUGAGAAGGAGCGCACGAAAGUGCAGGUAGGUCGCUCAGCCAAGUGGACGAAAACGUCCACA [whbob_SS_Arginine_A_sa107] | 91 nM
19 | UGAUAGGACAGAAGGAGCGGAAGUGAUGUUUCCAAAAGGAUAAGGUGUCAAAAGACACCCUUCCAGGUAGGUCGCUGUCCUAUCU [ArgBX 13 #Palindromic #SwitchBubble #StaticStem] | 136 nM
20 | GUAUGUGGAAACACGUACUUGUAUCCUAGGAAGGAUAUGCGGAAACGCAGAAGGUCCACCGGCGAGUUUAUCCAGUGAUGUUGGA [Ex FMN A 10] | 248 nM
21 | CAGUUCCGUAGUGAUGUUACGAUCUCUGAUACCAGACAACUCUAAGUCCCUUGGCAGCAGUCAUUUUGCUUAAUAUUUACUCAAA [#08 K4 Theophylline A Exclusion] | 116 nM
22 | CCUUUAGGCUCGGCCGCCACUCCAGUGAUGUUGGAGGUGCGUACAGAGCUAGAAAGCGUUAUCAGGAGGACCGGGAGUUUUAACG [Leorte] | 110 nM
23 | GGCAUGGUGACGCGGCUGCCAUACGCUUGGGAGGAUAUGUUUCGUGACAGAAGGCCCAGUGAUGUUGGGUCUGUUCAAAAGGACU [Arisus] | 150 nM
24 | AGAUUCGACACGGCCGCCACUUCCGGUGGCUGGUGUCAUGGUGCGCGUGAGUGAUGUUUAUGUGGGAGGACCGGGUGUUGAGUCU [whbob_Ex_Tryp_B_w42] | 704 nM

Row | Sequence | apparent KD of K4 kissing-loop reporter
25 | GGGAGAAGAGCGGCCGCCACUCAGAAAGAAGAAGAAUAUAGUGAUGUUAUAUAGGAAAGGAAGAAGAGGACCGGGCUUAAGAGGG [#18 K4 Tryptophan B Same State] | 171 nM
26 | GGGUUGAGCGGAAGGAGCGGCUGAACCAGUGAUGUUGGUUAAUCCAAGUGAUGUUGGAAAAGCCAGGUAGGUCGCCGCUUUAUCC [Same State Arg B GF 3] | 774 nM
27 | GGAUAGGACAGAGGAUAUGGUAGUGAUGUUACCAAACUGGUUACUCUUGUCAGAAAACUGGCAUCUCCAGAAGGCUGUCCUAUCG [KL-XFMN-B10] | 127 nM
28 | AGGUACAAAAGUACCGCUAGAUCCACGGAAGGAGCGCGCGAAAGCGCAGGUAGGUCGCCGGGCAGUGAUGUUGCCGGAUCUAGCA [Omei KL Arginine A SS A v7] | 144 nM
29 | CUGCCUCACUCGGCCGCCACUGUAUAAAUGUGACAGUGAUGUUGUCGUCGGAAAGGGCACUUAGGCAGGACCGGGAGUUUCAGGC [theeternabot_exclusion_KL_Trp_B_20] | 686 nM
30 | AGACUACCACACUGUCAAUAGACAGUGAGCUAGGAUAUGCUGAUAAGCAGAAGGAGUGAUGUUCCUCGGUAGUCAAUAAAAUAAU [FmnAX 13 G29+C67] | 378 nM
31 | ACGUCACGUAAACUCGUGGUUUCGAUCGAUACCAGUAGCGAGAGUUACCCUUGGCAGCGACAUGAGUGAUGUUCAUGUACGAAGA [KL-XTheoA1] | 91.7 nM
32 | AGCGCCUAAGCCGAUACCAGAAACGCGGUGCGUCGCACGAUUAACUAGGAAAGUGAUGUUUUCCCUUGGCAGCGGGACCUGUGAG [theeternabot_exclusion_KL_Theo_B_11] | 135 nM
33 | GGAUGCAUUUUGGAUACCAGUCUAGUGAUGUUAGACUGAUAAUAACGGGCAGCGUUGGCAGACCCUUGGCAGCCAAAAUACUUAA [theeternabot_exclusion_KL_Theo_B_33] | 58.9 nM
34 | GCGCGGCACAGUGAUGUUGUGCCUCGGAGACGAGGACCGGUACGGCCGCCACUCGUCCGCGCAGCUGAGGCAAAAGCCUCGGCAA [Omei KL Tryp A SS B v4] | 128 nM
35 | CCCGCGGCGGGAAACCGUCGCGGGAAGGAAGGAGCGGCGAAGAAGCCAGGUAGGUCGCCUAUUGACAGUGAUGUUGUUAUAUAGA [#11] | 179 nM
36 | AGAGUUAUGCGAGGAUAUGCAGUUAGUACUCAAAGAGUACUAACGGCAGAGUGAUGUUCUGUGAAAGCAGAAGGUGCAUAACUCA [Omei KL FMN B SS B v8] | 923 nM
37 | UAGUCCUAGUGAUCGUUAUCACGUGGUGGGCGAGGACCGGUACGGCCGCCACUCGACUAUGCAGUGAUGUUGCAAUCCGGACAAU [Exclusion - Tryptophan A (Freestyle 15)] | 145 nM
38 | ACGCCGAGGACGGCCGCCACUAUGACGAAGUCCGUUCCUAUUACUGCGCGAGUGAUGUUCACGACUAGGACCGGGUCUAUGAGCU [theeternabot_exclusion_KL_Trp_B_28] | 631 nM
39 | AUUAUCAAUUUAUUAUAUAACUUUUCAGAAGGAGCGUGGAAGUACACAGGUAGGUCGCUGAAUAUAGGACUAGUGAUGUUAGUUA [JR_Nu_SSArginiA_Sub024] | 248 nM
40 | UGAUAGGACAGAAGGAGCGGUAGUGAUGUUGCCAAAAGGAUAAGGUGUCAAAAGACACCCUGCCAGGUAGGUCGCUGUCCUAUCU | 99.8 nM
